Assay results taken from PMC3293909.

How the values were obtained:
[1] = target: T1, ephrin B1 (mouse (endogenous in primary osteoclasts))
T1 sequence (P52795 whole entry, looked up): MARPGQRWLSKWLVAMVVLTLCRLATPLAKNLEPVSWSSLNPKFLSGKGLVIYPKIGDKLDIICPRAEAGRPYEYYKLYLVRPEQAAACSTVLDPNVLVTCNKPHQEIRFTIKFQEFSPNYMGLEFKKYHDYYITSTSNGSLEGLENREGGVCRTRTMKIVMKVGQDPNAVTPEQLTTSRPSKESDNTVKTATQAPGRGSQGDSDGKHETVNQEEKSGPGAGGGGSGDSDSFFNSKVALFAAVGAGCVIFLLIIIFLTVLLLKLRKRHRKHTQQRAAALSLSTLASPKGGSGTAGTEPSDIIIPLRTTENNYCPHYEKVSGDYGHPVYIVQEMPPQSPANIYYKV

[2] = target: T1, ephrin B1 (mouse (endogenous in primary osteoclasts)); remark: listed apart in the source

inhibition of NFATc1 mRNA (real-time RT-PCR) in WT osteoclasts treated with EphB2-Fc against control Fc; not in ephrin B1 deficient cells [1]: 67%
inhibition of cathepsin K mRNA (real-time RT-PCR) in WT osteoclasts treated with EphB2-Fc against control Fc; not in ephrin B1 deficient cells [1]: 60%
reduction of TRAP mRNA (real-time RT-PCR) in differentiated WT osteoclasts treated with soluble EphB2-Fc for 4 days against control Fc [1]: 62%
inhibition of the area of bone resorption pits formed by WT osteoclast precursors on bone slices by EphB2-Fc against control Fc; no significant effect on ephrin B1 deficient cells [2]: 54%
suppression of multinucleated cell (MNC) formation from WT splenocyte precursors by EphB2-Fc (2 µg/ml) against control Fc; little effect on ephrin B1 deficient cells [2]: 49.8%
B1: clustered soluble recombinant EphB2-Fc (Fc fusion)
chain: VEETLMDSTTATAELGWMVHPPSGWEEVSGYDENMNTIRTYQVCNVFESSQNNWLRTKFIRRRGAHRIHVEMKFSVRDCSSIPSVPGSCKETFNLYYYEADFDLATKTFPNWMENPWVKVDTIAADESFSQVDLGGRVMKINTEVRSFGPVSRNGFYLAFQDYGGCMSLIAVRVFYRKCPRIIQNGAIFQETLSGAESTSLVAARGSCIANAEEVDVPIKLYCNGDGEWLVPIGRCMCKAGFEAVENGTVCRGCPSGTFKANQGDEACTHCPINSRTTSEGATNCVCRNGYYRADLDPLDMPCTTIPSAPQAVISSVNETSLMLEWTPPRDSGGREDLVYNIICKSCGSGRGACTRCGDNVQYAPRQLGLTEPRIYISDLLAHTQYTFEIQAVNGVTDQSPFSPQFASVNITTNQAAPSAVSIMHQVSRTVDSITLSWSQPDQPNGVILDYELQYYEKELSEYNATAIKSPTNTVTVQGLKAGAIYVFQVRARTVAGYGRYSGKMYFQTMTEAEYQTSIKEKLPL
